# Source: publication PMC5954133, “Functional Characterization of a Small Alarmone Hydrolase in Corynebacterium glutamicum” (Frontiers in Microbiology, 2018)
# Experiments:
# Assay in all cases: HPLC-UV pyrophosphohydrolase assay, Eadie-Hofstee
# Assay type in all cases: biochemical, Corynebacterium glutamicum
# [1] = substrate: Nc1nc2c(ncn2[C@@H]2O[C@H](COP(=O)(O)O)[C@@H](OP(=O)(O)OP(=O)(O)O)[C@H]2O)c(=O)[nH]1; settings: 1 mM MnCl2, 50 mM HEPES-Na pH 8.0, 200 mM NaCl, 30°C, substrate inhibition, approximate fit from lowest concentrations
# Excerpt: (§1) HPLC-UV pyrophosphohydrolase assay, Eadie-Hofstee on RelCg
# [2] = substrate: Nc1nc2c(ncn2[C@@H]2O[C@H](COP(=O)(O)OP(=O)(O)O)[C@@H](OP(=O)(O)OP(=O)(O)O)[C@H]2O)c(=O)[nH]1; settings: 1 mM MnCl2, 50 mM HEPES-Na pH 8.0, 200 mM NaCl, 30°C, substrate inhibition, approximate fit from lowest concentrations
# Excerpt: as §1
# [3] = substrate: Nc1nc2c(ncn2[C@@H]2O[C@H](COP(=O)(O)OP(=O)(O)OP(=O)(O)O)[C@@H](OP(=O)(O)OP(=O)(O)O)[C@H]2O)c(=O)[nH]1; settings: 1 mM MnCl2, 50 mM HEPES-Na pH 8.0, 200 mM NaCl, 30°C, substrate inhibition, approximate fit from lowest concentrations, only two data points, no error analysis
# Excerpt: as §1
# [4] = substrate: Nc1nc2c(ncn2[C@@H]2O[C@H](COP(=O)(O)O)[C@@H](OP(=O)(O)OP(=O)(O)O)[C@H]2O)c(=O)[nH]1; settings: 1 mM MnCl2, 50 mM HEPES-Na pH 8.0, 200 mM NaCl, 30°C, substrate inhibition, approximate fit from lowest concentrations, only two data points, no error analysis
# Excerpt: (§2) HPLC-UV pyrophosphohydrolase assay, Eadie-Hofstee on […]
# [5] = substrate: Nc1nc2c(ncn2[C@@H]2O[C@H](COP(=O)(O)OP(=O)(O)O)[C@@H](OP(=O)(O)OP(=O)(O)O)[C@H]2O)c(=O)[nH]1; settings: 1 mM MnCl2, 50 mM HEPES-Na pH 8.0, 200 mM NaCl, 30°C, substrate inhibition, approximate fit from lowest concentrations; remark: listed apart in the source
# Excerpt: as §2
# [6] = substrate: Nc1nc2c(ncn2[C@@H]2O[C@H](COP(=O)(O)OP(=O)(O)OP(=O)(O)O)[C@@H](OP(=O)(O)OP(=O)(O)O)[C@H]2O)c(=O)[nH]1; settings: 1 mM MnCl2, 50 mM HEPES-Na pH 8.0, 200 mM NaCl, 30°C, substrate inhibition, approximate fit from lowest concentrations
# Excerpt: as §2
Protein,Km [1] [µM],kcat [1] [s⁻¹],kcat/Km [1] [M⁻¹ s⁻¹],Km [2] [µM],kcat [2] [s⁻¹],kcat/Km [2] [M⁻¹ s⁻¹],Km [3] [µM],kcat [3] [s⁻¹],kcat/Km [3] [M⁻¹ s⁻¹],Km [4] [µM],kcat [4] [s⁻¹],kcat/Km [4] [M⁻¹ s⁻¹],Km [5] [µM],kcat [5] [s⁻¹],kcat/Km [5] [M⁻¹ s⁻¹],Km [6] [µM],kcat [6] [s⁻¹],kcat/Km [6] [M⁻¹ s⁻¹]
"RelCg (Corynebacterium glutamicum ATCC 13032) (protein, full-length bifunctional RSH; expressed in E. coli ER2566) MSLERNTQKSSMGVRSMSARLARSLTGNRVRTNPVLDPLLSIHRQFHPRADVQVLERAYDTAERLHDGVIRKSGDPYITHPLAVATIAAEIGMDTTTLVAALLHDTVEDTDYSLDDLTRDFGEEVARLVDGVTKLDKVALGAAAEAETIRKMIVAMSQDPRVLVIKVADRLHNMRTMRFLPPEKQAKKARQTLEVIAPLAHRLGMASVKWELEDLSFAILYPKKYEEIVRLVADRAPSRDRYLKEIIDQVTGGLRENNIAAEVLGRPKHYWSIYQKMIVRGRDFDDIFDLVGIRILVDNVNNCYAAIGVVHSLFNALPGRFKDYISAPRFGVYQSLHTTVMGPGGKPLEVQARTHDMHYNAEFGIAAHWRYKETKGSHSGEQAEVDQMAWMRQLLDWQKEAADPNEFLDSLRYDLTSKQIFVFTPKGDVVNLPVNSTPVDFAYAVHTEVGHRCIGAKINGKLVALETKLKSGDRVEVFTSKDQNAGPSRGWQEFVVSPRAKAKIRQWFAKERREEYLEAGRDALAAVIQRGGLPMHRLFTASSMKTVATELHYPDVDALYTAIGSGSVSAQHVVNRLMAIFGDEEDAEDALVARTPFSELVNSRATTESSTGILVEGSPDVMAKLAKCCMPVPGDEIFGFVTRGGGVSVHRTDCTNVEKLKEEPERIVSVSWASEGQGSVFSATLQLEALDRAGLLFELTRVINEQKVSVTAMNSHCSEDRVATVRFTFAVSDTKQLGSLMTQLRNAEGVFDVYRVTSGG",734 ± 127,0.794 ± 0.071,1080,511 ± 10,0.296 ± 0.004,579,422,0.563,1340,,,,,,,,,
"RelHCg (Corynebacterium glutamicum ATCC 13032) (protein, full-length; expressed in E. coli ER2566) MNTLSPRLRKAMNTAAWAHRHHVRKGGGIPYVSHLYSVMYLLASVTNDEDVLIAGLLHDTLEDVPEEYNSAQLEADFGPRVRELVEELTKQPLKSWKARADAYLLHLSAGASLEAVLISTADKLHNLMSILDDLEIHGEDLWQRFNAGKEQQIWWYSEVYQISLQRLGFNELNKQLGLCVEKLLKQSA",,,,,,,,,,144,0.294,2040,101 ± 7,0.502 ± 0.018,4970,90 ± 11,0.09 ± 0.003,1010
